Residue numbers refer to the chain shown, from its start. Names and notes keep the numbering of the source. Blank lines part the entries; values can stand above or below the binder they belong to.
Tests used:
Experiment in all cases: cross-linking; in vivo BMOE cross-link of cysteine pairs in yeast cells arrested in late G1 by non-degradable Sic1(9m); Scc1-PK immunoprecipitated, western blot, band intensities quantified
Conditions in all cases: partners not purified
Smc3 S72C E1155Q = target: T1, Smc3 S72C E1155Q (S. cerevisiae, UniProt P47037 1-1230, S72C | E1155Q)
T1 construct: Smc3, S. cerevisiae; also called EQ mutant version of Smc3^S72C; source: S. cerevisiae W303, ectopically expressed, late G1 arrested cells, whole-cell extract
T1 sequence (looked up): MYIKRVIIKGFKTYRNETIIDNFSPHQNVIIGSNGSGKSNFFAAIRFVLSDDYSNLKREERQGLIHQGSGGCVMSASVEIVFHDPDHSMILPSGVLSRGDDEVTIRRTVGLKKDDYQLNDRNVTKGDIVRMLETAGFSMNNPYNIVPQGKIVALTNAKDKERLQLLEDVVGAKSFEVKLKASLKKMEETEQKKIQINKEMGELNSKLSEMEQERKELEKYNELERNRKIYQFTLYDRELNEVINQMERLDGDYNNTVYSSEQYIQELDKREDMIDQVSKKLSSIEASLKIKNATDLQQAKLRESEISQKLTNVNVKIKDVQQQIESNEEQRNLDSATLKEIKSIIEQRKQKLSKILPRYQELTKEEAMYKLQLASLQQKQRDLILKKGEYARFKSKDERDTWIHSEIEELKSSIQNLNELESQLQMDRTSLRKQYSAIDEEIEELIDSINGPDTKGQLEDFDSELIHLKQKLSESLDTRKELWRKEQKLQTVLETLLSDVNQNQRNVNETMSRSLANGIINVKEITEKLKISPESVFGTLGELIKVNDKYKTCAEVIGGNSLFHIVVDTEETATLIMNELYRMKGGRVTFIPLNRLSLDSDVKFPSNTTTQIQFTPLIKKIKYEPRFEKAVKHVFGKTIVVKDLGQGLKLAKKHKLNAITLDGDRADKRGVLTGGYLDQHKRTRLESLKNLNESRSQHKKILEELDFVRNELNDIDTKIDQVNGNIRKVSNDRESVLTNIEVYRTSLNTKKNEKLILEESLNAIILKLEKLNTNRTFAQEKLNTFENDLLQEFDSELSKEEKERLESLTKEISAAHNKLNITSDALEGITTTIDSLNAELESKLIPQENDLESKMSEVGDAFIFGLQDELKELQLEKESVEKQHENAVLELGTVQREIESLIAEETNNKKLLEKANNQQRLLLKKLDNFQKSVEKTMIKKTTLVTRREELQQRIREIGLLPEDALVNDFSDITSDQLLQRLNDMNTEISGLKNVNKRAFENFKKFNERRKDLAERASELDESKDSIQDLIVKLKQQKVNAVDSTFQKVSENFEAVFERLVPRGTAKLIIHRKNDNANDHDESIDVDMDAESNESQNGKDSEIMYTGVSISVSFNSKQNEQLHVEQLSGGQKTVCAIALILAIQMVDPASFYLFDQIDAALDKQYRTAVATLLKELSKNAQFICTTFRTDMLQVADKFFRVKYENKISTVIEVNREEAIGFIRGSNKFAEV

Smc3^QQ S72C = target: T2, Smc3^QQ S72C (S. cerevisiae, UniProt P47037 1-1230, S72C | K112Q | K113Q)
T2 construct: Smc3, S. cerevisiae; source: S. cerevisiae W303, late G1 arrested cells, whole-cell extract
T2 sequence (looked up): T1 sequence (looked up) with K112Q, K113Q, Q1155E

Smc3^E1155Q Q67C K1004C = target: T3, Smc3^E1155Q Q67C K1004C (S. cerevisiae, UniProt P47037 1-1230, Q67C | K1004C | E1155Q)
T3 construct: Smc3, S. cerevisiae, ATP hydrolysis mutant; source: S. cerevisiae W303, late G1 arrested cells, whole-cell extract
T3 sequence (looked up): T1 sequence (looked up) with Q67C, C72S, K1004C

- fold change of the crosslink against wild-type Smc3 (S72C) (Smc3 S72C E1155Q): ~2 fold
- crosslinking efficiency relative to wild type (Smc3^QQ S72C): ~10%
B1: Scc2 E819C (natural protein, S. cerevisiae, UniProt Q04002 1-1493, looked up)
chain: MSYPGKDKNIPGRIIEALEDLPLSYLVPKDGLAALVNAPMRVSLPFDKTIFTSADDGRDVNINVLGTANSTTSSIKNEAEKERLVFKRPSNFTSSANSVDYVPTNFLEGLSPLAQSVLSTHKGLNDSINIEKKSEIVSRPEAKHKLESVTSNAGNLSFNDNSSNKKTKTSTGVTMTQANLAEQYLNDLKNILDIVGFDQNSAEIGNIEYWLQLPNKKFVLTTNCLTKLQMTIKNITDNPQLSNSIEITWLLRLLDVMVCNIKFSKSSLKMGLDDSMLRYIALLSTIVLFNIFLLGKNDSNLHRESYIMEPVNFLSDLIESLKILTIEYGSLKIEFDTFQEALELLPKYIRNGPFLDDNVTAKLVYIFSDLLMNNDIEATTNIQFQSFWDNVKRISSDILVSLFGSFDQQRGFIIEELLSHIEKLPTKRIQKKLRKVGNQNIYITDFTFTLMSMLENINCYSFCNQMKDIAPENIDLLKNEYKKQEEFLFNIVEHINDTILERFFKNPSALRYVIDNFVQDLLLLISSPQWPVTEKILSSLLKRLLSVYSPSMQVSANIETICLQLIGNIGSTIFDIKCSTRDHEDNNLIKMINYPETLPHFFKSFEECIAYNETIKCRRSATRFLWNLRLGTILILEEYTKDAKEQIITVDNELKKILEQIKDGGLGPELENREADFSTIKLDYFSILHAFELLNLYDPYLKLILSLLAKDKIKLRSTAIKCLSMLASKDKVILSNPMVKETIHRRLNDSSASVKDAILDLVSINSSYFEFYQQINNNYNDDSIMVRKHVLRINEKMYDETNDIVTKVYVIARILMKICDEEDNIIDMARLILLNRWILKVHEVLDQPEKLKEISSSVLLVMSRVAIMNEKCSQLFDLFLNFYLLNKEAHSKEAYDKITHVLTILTDFLVQKIVELNSDDTNEKNSIVDKQNFLNLLAKFADSTVSFLTKDHITALYPYMVSDEKSDFHYYILQVFRCTFEKLANFKQKFLYDLETTLLSRLPKMNVREIDEAMPLIWSVATHRHDTARVAKACSSCLSHLHPYINKANNEEAAIVVDGKLQRLIYLSTGFARFCFPKPSNDKIAFLQEGETLYEHITKCLLVLSKDKITHVIRRVAVKNLTKLCGNHPKLFNSRHVLHLLDKEFQSDQLDIKLVILESLYDLFLLEERKSVRNTGVNSTLSSNSILKKKLLKTNRVEFANDGVCSALATRFLDNILQLCLLRDLKNSLVAIRLLKLILKFGYTNPSHSIPTVIALFASTSQYIRHVAYELLEDLFEKYETLVFSSLSRGVTKAIHYSIHTDEKYYYKHDHFLSLLEKLCGTGKKNGPKFFKVLKRIMQSYLDDITDLTSTNSSVQKSIFVLCTNISNITFVSQYDLVSLLKTIDLTTDRLKEVIMDEIGDNVSSLSVSEEKLSGIILIQLSLQDLGTYLLHLYGLRDDVLLLDIVEESELKNKQLPAKKPDISKFSAQLENIEQYSSNGKLLTYFRKHVKDT
notes: Scc2, S. cerevisiae; source: S. cerevisiae W303, in vivo, whole-cell extract

- double crosslink band relative to that of smc3 S72C K1004C E1155Q with scc2 E819C D369C (Smc3^E1155Q Q67C K1004C): ~15%
B2: Scc2 D369C T1175C (natural protein, S. cerevisiae, UniProt Q04002 1-1493, looked up)
chain: B1 chain with D369C, C819E, T1175C
notes: Scc2, S. cerevisiae; source: S. cerevisiae W303, late G1 arrested cells, whole-cell extract
